Patent US20040259798A1
Bridge positions count the residues as written; N and C are the ends. Ends that are not written are not given here.

Key:
[1] = target: β2 integrins on THP-1 cells; assay: inhibition of THP-1 cell adhesion to coated LLG-C4-GST
[2] = target: β2 integrins on THP-1 cells; assay: inhibition of THP-1 cell adhesion to coated LLG-C4-GST, phosphatase assay
[3] = target: β2 integrins on THP-1 cells; assay: inhibition of THP-1 cell adhesion to coated von Willebrand factor, phosphatase assay
[4] = target: β2 integrins on THP-1 cells; assay: inhibition (partial) of THP-1 cell adhesion to coated type IV collagen, phosphatase assay

Row | fold less active than C(1-8;3-9) [1] | IC50 [2] | IC50 [3] | IC50 [4] | Binder
1 | 20 fold | – | – | – | CPCFLLGCC (disulfide 1-9, 3-8) [C(1-9;3-8) peptide]
2 | – | 20 µM | 20 µM | 200 µM | CPCFLLGCC (disulfide 1-8, 3-9) [C(1-8;3-9) peptide]
